This note sets out measurements from publication PMC10029155 (2023).

Where no end group is shown, it is not given here.

In this experiment the target is cathepsin B (Homo sapiens, UniProt P07858). The experiment is described as follows: square wave voltammetry.
With WDMWPSMDWKAE (also: displayed on M13 phage pIII) [CTSB 4-1 phage-displayed peptide], the Kd was 73.7 nM.

Molecule SSTTNSNSTSNTK-biotin [CTSB BP3, listing 1 of 2 here] displayed a Kd of 50.8 nM.

In the case of SSTTNSNSTSNTK-biotin [CTSB BP3, listing 2 of 2 here], the Kd is 11.6 nM.
